Test results from article PMC12412572, “Natural Allelic Variations in IbCHYR1–IbZnFR Complex Regulate Fusarium Root Rot Resistance in Sweet Potato”.

T1: IbZnFR (CCCH-type zinc-finger protein) (Ipomoea batatas, UniProt A0A6M2VA70 1-565)
T1 sequence: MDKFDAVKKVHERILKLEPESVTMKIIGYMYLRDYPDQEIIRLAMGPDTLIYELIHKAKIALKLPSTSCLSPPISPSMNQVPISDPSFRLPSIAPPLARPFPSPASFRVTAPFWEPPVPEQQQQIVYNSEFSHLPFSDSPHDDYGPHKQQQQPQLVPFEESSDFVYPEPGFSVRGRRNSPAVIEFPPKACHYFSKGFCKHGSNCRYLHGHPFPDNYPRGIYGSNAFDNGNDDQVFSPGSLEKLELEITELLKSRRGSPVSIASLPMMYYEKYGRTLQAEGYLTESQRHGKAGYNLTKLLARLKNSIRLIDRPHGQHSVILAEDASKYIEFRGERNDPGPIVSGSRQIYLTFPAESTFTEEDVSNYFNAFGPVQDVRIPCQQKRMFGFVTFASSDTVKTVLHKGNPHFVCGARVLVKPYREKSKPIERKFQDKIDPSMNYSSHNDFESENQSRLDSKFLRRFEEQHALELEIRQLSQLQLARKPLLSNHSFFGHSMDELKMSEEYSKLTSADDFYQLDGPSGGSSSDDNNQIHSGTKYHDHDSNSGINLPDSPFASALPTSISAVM

B1: IbPR5 promoter wt probe (dsDNA)
DNA 1: ATTGTACTAAAAGGGAGAGGATACAAGGTT
DNA 2: AACCTTGTATCCTCTCCCTTTTAGTACAAT
B2: IbCSLE1 promoter wt probe (dsDNA)
DNA 1: ATAGTCTTTGTAGGGAGACACAGACACCAT
DNA 2: ATGGTGTCTGTGTCTCCCTACAAAGACTAT
B3: IbCOMT promoter wt probe (dsDNA)
DNA 1: AAACCGTTCTCTCTCTTCTTCTTCATCTTC
DNA 2: GAAGATGAAGAAGAAGAGAGAGAACGGTTT
B4: IbMRL7L promoter wt probe (dsDNA)
DNA 1: CTTCTTATCCCTCTAACTTTCCTACA
DNA 2: TGTAGGAAAGTTAGAGGGATAAGAAG
B5: IbMDAR4 promoter wt probe (dsDNA)
DNA 1: ACATTTACCCGGGAGAACGGATAACG
DNA 2: CGTTATCCGTTCTCCCGGGTAAATGT

Each binder was assayed against T1, IbZnFR (CCCH-type zinc-finger protein) (assay: EMSA; LightShift Chemiluminescent EMSA Kit (Thermo), manufacturer's instructions; buffer, salt, pH and temperature not stated). Details: protein: recombinant; tags: His (pET-28a); label: 5' biotin; blunt.

Binding result, binds:
B1, B2, B3, B4, B5
